Data taken from paper PMC12730228, “Targeted NanoBiT Screening Identifies a Novel Interaction Between SNAPIN and Influenza A Virus M1 Protein” (Biology, 2025).

Experiments:
[1] = molecular target: SmN-SNAPIN (human) (UniProt O95295); experiment: split reporter (BiFC, NanoBiT)
[2] = molecular target: T1, SmN-SNAPIN (human, UniProt O95295 1-136); experiment: split reporter (BiFC, NanoBiT); conditions: partners not purified
T1 construct: also called SNAPIN-SmBiT; not shown: SmBiT, N-terminal, kept
T1 sequence (looked up): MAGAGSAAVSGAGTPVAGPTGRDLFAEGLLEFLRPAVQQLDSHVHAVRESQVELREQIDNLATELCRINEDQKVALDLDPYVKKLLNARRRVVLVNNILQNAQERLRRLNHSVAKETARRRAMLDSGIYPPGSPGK

[3] = molecular target: T2, Flag-M1 (influenza A virus A/WSN/33 (H1N1), UniProt P05777 1-252); experiment: pull-down; conditions: both partners purified
T2 construct: also called Flag-tagged M1; M1 protein; not shown: Flag, N-terminal, kept
T2 sequence (P05777 whole entry): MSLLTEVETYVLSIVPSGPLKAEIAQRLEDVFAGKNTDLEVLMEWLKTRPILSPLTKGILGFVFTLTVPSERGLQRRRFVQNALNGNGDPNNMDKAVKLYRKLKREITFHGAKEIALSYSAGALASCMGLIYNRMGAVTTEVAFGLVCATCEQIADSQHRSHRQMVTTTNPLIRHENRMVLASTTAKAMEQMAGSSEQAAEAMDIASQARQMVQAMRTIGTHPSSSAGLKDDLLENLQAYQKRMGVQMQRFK

LgN-NS2 (natural protein)
fold signal increase relative to the negative control [1]: 2.37 fold

B1: LgN-M2 (natural protein)
chain: MSLLTEVETPIRNEWGCRCNDSSDPLVIAANIIGILHLILWILDRLFFKCIYRRFKYGLKRGPSTEGVPESMREEYRKEQQNAVDVDDGHFVNIELE
notes: also called matrix protein 2; not shown: LgBiT, N-terminal, kept
fold signal increase relative to the negative control [2]: 8.62 fold

B2: GST-SNAPIN (natural protein, human, UniProt O95295 1-136, looked up)
chain: T1 sequence (looked up)
notes: also called GST-tagged SNAPIN
binding result [3]: binds
